From patent publication US6998123B1, “Osteoporosis treatment with anti-IL-11 antibody” (priority 1998, dated 2006)
Numbering of substitutions follows the chain as printed. Entries after “also recorded” stand apart in the source; their conditions may differ. Ends that are not written are not given here.

B1: H289→Y289 mutant solubilized IL-11 receptor: soluble human IL-11 receptor mutated H289 to Y in the gp130 binding region, expressed in BHK cells (protein)
chain: SPCPQAWGPPGVQYGQPGRSVKLCCPGVTAGDPVSWFRDGEPKLLQGPDSGLGHELVLAQADSTDEGTYICQTLDGALGGTVTLQLGYPPARPVVSCQAADYENFSCTWSPSQISGLPTRYLTSYRKKTVLGADSQRRSPSTGPWPCPQDPLGAARCVVHGAEFWSQYRINVTEVNPLGASTRLLDVSLQSILRPDPPQGLRVESVPGYPRRLRASWTYPASWPCQPHFLLKFRLQYRPAQHPAWSTVEPAGLEEVITDAVAGLPYAVRVSARDFLDAGTWSTWSPEAWGTPSTGTIPKEIPAWGQLHTQPEVEPQVDSPAPPRPSLQPHPRLLDHRDSVEQVAVLA
modifications: left off: small tags and cut ends
B2: soluble form of murine interleukin-11 receptor: soluble form of murine IL-11R produced by Karow et al. (protein)
chain: B1 chain with Y266H
modifications: left off: small tags and cut ends
B3: IL-11: cytokine interleukin-11, added exogenously to cultures (protein, UniProt P47873 22-199, looked up)
Interleukin-11: PGPPAGSPRVSSDPRADLDSAVLLTRSLLADTRQLAAQMRDKFPADGDHSLDSLPTLAMSAGTLGSLQLPGVLTRLRVDLMSYLRHVQWLRRAGGPSLKTLEPELGALQARLERLLRRLQLLMSRLALPQAAPDQPVIPLGPPASAWGSIRAAHAILGGLHLTLDWAVRGLLLLKTRL

Experiments:
[1] = tested on: cocultures of murine bone marrow and calvaria cells; assay: TRAP assay: osteoclast formation in cocultures; format: cell-based; conditions: for inhibition of IL-11 induced osteoclast formation (TRAP+ multinucleated cells): 20 ng/ml IL-11, 10, 100 or 1000 ng/ml test substance, 9 days, FIGS. 7A, 7B, 8
Text: Particular IL-11 antagonists useful in the treatment of IL-11 related bone density disorders may be identified using the TRAP assay and the bone nodule formation assay, discussed herein. The TRAP assay is known in the art and involves co-culturing murine calvaria (osteoblasts) and bone marrow cells in vitro and then quantifying osteoclast formation by counting the number of tartrate-resistant acid phosphatase positive (TRAP+) multinucleated cells. […] These potential IL-11 antagonists may be screened to determine if they are IL-11 antagonists by examining their activity in the TRAP assay and the bone nodule formation assay.
Post menopausal osteoporosis is characterized by a general reduction in bone mass, resulting from an imbalance between osteoblast-mediated bone formation and bone resorption by the osteoclast. While the osteoblast is responsible for the formation of new bone or osteoid, it also appears to control the activation and/or number of osteoclasts by releasing cytokines such as IL-6 or IL-11. This process can be examined using a “TRAP assay” which involves co-culturing murine calvaria (osteoblasts) and bone marrow cells in vitro and then quantifying osteoclast formation by counting the number of tartrate-resistant acid phosphatase positive (TRAP+) multinucleated cells. Ovariectomized (OVX) rats or mice provide a satisfactory animal model for postmenopausal women in studies of osteoporosis.
The effect of IL-11 on osteoclast development in cocultures of murine bone marrow and calvaria cells was examined using standard techniques. Briefly, bone marrow cultures were established by removing femurs from mice, dissecting away soft tissue, and removing the distal and proximal ends of the femur. The marrow was then flushed with 5 ml α MEM and 1.0% penicillin-streptomycin using a 25 gauge needle. The bone marrow cells were then suspended to a concentration of 5 000 000 cells per ml in α MEM containing 15% fetal calf serum (charcoal treated) to remove cells adherent to plastic. The non-adherent cells were then co-cultured for an additional 9 days with murine calvaria cells prior to being fixed and stained for TRAPase activity (stains were obtained from Sigma Chemical Co., St. Louis, Mo.). TRAP+ MNC's have the ability to form resorption pits in smooth cortical bone slices and are therefore considered to be of osteoclast origin.
The effect of IL-11 on osteoclast development in cocultures of murine bone marrow and calvaria cells was examined by maintaining these cultures in the presence of various specific concentrations of IL-11 for 9 days. After 9 days of culture, the cells were stained for TRAPase activity and the number of multinucleated TRAP+ cells were determined. The results of this experiment are depicted in Table I. Data are expressed as mean +/− SEM. […]

[2] = tested on: murine calvaria cell culture; assay: bone nodule formation assay with IL-11 antagonists in the presence of exogenous IL-11; format: cell-based; conditions: 20 ng/ml exogenous IL-11; for reduction of the inhibitory effect of IL-11 on bone nodule formation: very low levels/concentrations of test substance, 21 days, FIGS. 9, 10
Method: Bone nodule formation was measured using standard techniques. Briefly, calvaria cell cultures were established as follows: Calvaria cells were obtained from 2 day old fetal mouse calavariae by collagenase digestion. The cells were then cultured for 21 days in the presence of 0.5 mM ascorbic acid and 10 mM β-glycerophosphate. Where indicated in the experimental descriptions below, IL-11 and the mutant IL-11 receptor of experiment 4 were added to the culture at day 0 and every 3–4 days thereafter until the removal of the medium for analysis. Bone nodule formation was quantified by counting alizarin red stain nodules under a light microscope.
The effect of a gp130 binding region mutant soluble IL-11 receptor of type described in Experiment 4 and produced by the process of Experiment 3 on bone nodule formation in the presence of 20 ng/ml of exogenous IL-11 was assessed, and the results are depicted in FIG. 9. […] Thus, IL-11 antagonists such as mutant IL-11Rs can enhance bone nodule formation.
It was desired to determine if bone nodule formation could be modulated in a manner similar to that reported in Example 6 using an IL-11 antagonist peptide such as the one used in Example 5. To achieve this, the procedure of Example 6 was repeated, with the substitution of peptide 1 for the solubilized mutant IL-11 receptor. The results of this experiment are depicted in FIG. 10.

IL-11 and IL-11R = assay: productive interaction of IL-11 and IL-11R; design: species or system human; conditions: no test named at this place
Interleukin-11 (IL-11) = assay: cell-based or functional assay
IL-11 = molecular target: T1, IL-11 (Homo sapiens, UniProt P20809); conditions: Karow et al., Biochem J. (1996); cited from earlier work
T1 sequence (P20809 22-199): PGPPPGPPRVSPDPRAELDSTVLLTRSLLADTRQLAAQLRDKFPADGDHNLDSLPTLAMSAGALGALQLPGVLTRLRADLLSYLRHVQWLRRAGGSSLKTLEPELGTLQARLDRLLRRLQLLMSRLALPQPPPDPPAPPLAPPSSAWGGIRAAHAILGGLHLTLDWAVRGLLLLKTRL

gp130 = conditions: Karow et al., Biochem J. (1996); cited from earlier work
[3] = tested on: murine calvaria cells (primary osteoblasts); assay: bone nodule formation assay: effect of IL-11 alone; format: cell-based; conditions: various concentrations of IL-11; 250 μM ascorbic acid, 10 mM β-glycerol phosphate; FIG. 5
Method: The effect of IL-11 on bone formation was examined using the bone nodule formation assay. Murine calvaria cells (primary osteoblasts) were cultured in the presence of 250 μM ascorbic acid and 10 mM β-glycerol phosphate, and in the presence of various amounts of interleukin-11. After culturing, the culture media were plated out and the number of bone nodules per plate was counted.
The results are shown on the accompanying FIG. 5, where number of bone nodules per plate is plotted as the vertical axis, with the different concentrations of interleukin on the horizontal axis, not to scale. Each bar represents the result on experiments containing a different concentration of interleukin-11, as noted on FIG. 5.

Row | Molecule | inhibition of IL-11 induced osteoclast formation (TRAP+ multinucleated cells) [1] | reduction of the inhibitory effect of IL-11 on bone nodule formation [2] | inhibition of the productive interaction of IL-11 and IL-11R (IL-11 and IL-11R) | also measured
1 | Thr Tyr Pro Ala Ser Trp Pro Cys Gln Pro His Phe Leu Leu Lys Phe Arg Leu Gin Tyr (TYPASWPCQPHFLLKFRLQY; listed as Homo sapiens) [Peptide 2, reference compound] | does not | unable to reduce the inhibition of nodule formation by IL-11 |  | 
2 | SILRPDPPQGLRVESVPGYP [SEQ. ID. NO. 6] |  |  | inhibit the productive interaction between IL-11 and IL-11R | 
3 | RRLRASW [SEQ ID NO. 5] |  |  | capable of inhibiting the productive interaction of IL-11 and IL-11R | 
4 | RRLRASWTYPASWPCQPHFL [Peptide 1] | inhibits IL-11 induced osteoclast formation | able to reduce the inhibitory effects of 20 ng/ml exogenous IL-11 | binds IL-11 and prevents its productive interaction with IL-11R | 
5 | H289→Y289 mutant solubilized IL-11 receptor (from UniProt Q14626 24-370) |  |  |  | concentration of mutant receptor allowing enhanced bone nodule formation relative to no exogenous IL-11 (Interleukin-11 (IL-11)): 10 ng/mL
6 | B1 | capable of inhibiting IL-11-induced osteoclast formation | can reverse the effect of exogenous IL-11 |  | bone nodule formation relative to level without exogenous IL-11 ([2]; 10 ng/ml mutant receptor, FIG. 9): enhanced bone nodule formation relative to the level observed in the absence of exogenous IL-11
7 | B2 |  |  |  | affinity for IL-11 ligand (IL-11): high affinity
8 | B3 |  |  |  | affinity for gp130 (gp130): below the level of detection; effect of IL-11 on osteoclast formation in vitro ([1]; cocultures of murine calvaria and bone marrow cells): potent simulator of osteoclast formation; number of bone nodules per plate (bone formation) [3]: can inhibit bone nodule formation; also recorded: inhibits bone formation
